# Assay results published in the supplement of paper PMC10567573.
# B1: SNF8 addF (peptide)
# chain: LPALFTDLYSQEITAEEAREALPF
# B2: PSMB5 addF (peptide)
# chain: DGWIRVSSDNVADLHEKYSGSTPF
# B3: BEX2 addF (peptide)
# chain: HSLRAVSTDPPHHDHHDEFCLMPF
# B4: POLD2 addF (peptide)
# chain: CQPISFSGFGAEDDDLGGLGLGPF
# B5: TRPA1 addF (peptide)
# chain: EQRNSRWNTVLRAVKAKTHHLEPF
# Test: protein stability index of a GFP-peptide fusion (GPS, HEK-293T) (PSI 1-6); higher = more stable
# Conditions: c terminus: native
# 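Note: lentivirally expressed fusion library, cells FACS-sorted into six equal-sized GFP/DsRed ratio bins, PSI computed from sequencing read fractions per bin weighted by bin number.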
protein,measurement,setting,value
B1,protein stability index,parent: NP_009172.2,4.24
B2,protein stability index,parent: NP_002788.1,3.79
B3,protein stability index,parent: NP_116010.1,3.66
B4,protein stability index,parent: NP_006221.1,3.13
B5,protein stability index,parent: NP_015628.1,4.28
